PMC12295762, “Role of Individual Amino Acid Residues Directly Involved in Damage Recognition in Active Demethylation by ABH2 Dioxygenase”

Assays:
Experiment in all cases: EMSA; 0.5 mM αKG, 10 mM Mg2+, 2 mM ascorbate; 50 mM Tris-HCl pH 8.0, 50 mM KCl, 10 mM MgCl2, 0.5 mM αKG, 2 mM sodium ascorbate; 1.2 µM DNA, 0.4-12.8 µM protein; 10 min 37 °C then 5 min on ice; 10% native PAGE, 0.5x TBE, 4-8 °C; Hill fit
Conditions in all cases: protein: recombinant; tags: N-terminal His6; label: 5'-FAM on strand 1; blunt
ABH2 V99A = molecular target: T1, ABH2 V99A (human, UniProt Q6NS38 1-261, V99A)
T1 sequence: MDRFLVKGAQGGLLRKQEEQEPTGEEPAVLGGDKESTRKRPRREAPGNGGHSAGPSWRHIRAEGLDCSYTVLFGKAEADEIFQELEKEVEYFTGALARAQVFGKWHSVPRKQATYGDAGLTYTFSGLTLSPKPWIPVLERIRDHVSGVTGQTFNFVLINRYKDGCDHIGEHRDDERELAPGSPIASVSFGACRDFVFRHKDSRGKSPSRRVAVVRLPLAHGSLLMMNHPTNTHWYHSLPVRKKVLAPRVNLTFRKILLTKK

ABH2 R172A = molecular target: T2, ABH2 R172A (human, UniProt Q6NS38 1-261, R172A)
T2 sequence: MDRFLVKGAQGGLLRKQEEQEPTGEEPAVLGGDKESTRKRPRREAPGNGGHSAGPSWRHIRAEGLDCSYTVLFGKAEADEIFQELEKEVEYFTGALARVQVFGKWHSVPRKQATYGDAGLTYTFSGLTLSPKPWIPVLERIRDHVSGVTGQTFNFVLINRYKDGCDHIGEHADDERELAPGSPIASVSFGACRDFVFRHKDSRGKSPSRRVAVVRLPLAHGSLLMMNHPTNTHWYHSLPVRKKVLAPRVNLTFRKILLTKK

ABH2 F124A = molecular target: T3, ABH2 F124A (human, UniProt Q6NS38 1-261, F124A)
T3 sequence: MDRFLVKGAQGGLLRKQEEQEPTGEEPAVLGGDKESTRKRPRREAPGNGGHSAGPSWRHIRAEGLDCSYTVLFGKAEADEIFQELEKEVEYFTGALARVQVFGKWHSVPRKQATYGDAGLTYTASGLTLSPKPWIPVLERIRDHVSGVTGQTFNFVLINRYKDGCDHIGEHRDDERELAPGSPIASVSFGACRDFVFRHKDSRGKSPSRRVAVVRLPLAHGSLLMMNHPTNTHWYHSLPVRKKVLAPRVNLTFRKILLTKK

ABH2 S125A = molecular target: T4, ABH2 S125A (human, UniProt Q6NS38 1-261, S125A)
T4 sequence: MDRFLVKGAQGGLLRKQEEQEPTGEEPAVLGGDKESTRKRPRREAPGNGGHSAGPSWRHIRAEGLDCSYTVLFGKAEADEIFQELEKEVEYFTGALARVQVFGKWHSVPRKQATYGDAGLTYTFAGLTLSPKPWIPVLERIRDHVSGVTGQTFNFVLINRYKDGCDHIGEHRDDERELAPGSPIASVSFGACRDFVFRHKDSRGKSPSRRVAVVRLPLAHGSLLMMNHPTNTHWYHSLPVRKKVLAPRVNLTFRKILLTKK

ABH2 E175A = molecular target: T5, ABH2 E175A (human, UniProt Q6NS38 1-261, E175A)
T5 sequence: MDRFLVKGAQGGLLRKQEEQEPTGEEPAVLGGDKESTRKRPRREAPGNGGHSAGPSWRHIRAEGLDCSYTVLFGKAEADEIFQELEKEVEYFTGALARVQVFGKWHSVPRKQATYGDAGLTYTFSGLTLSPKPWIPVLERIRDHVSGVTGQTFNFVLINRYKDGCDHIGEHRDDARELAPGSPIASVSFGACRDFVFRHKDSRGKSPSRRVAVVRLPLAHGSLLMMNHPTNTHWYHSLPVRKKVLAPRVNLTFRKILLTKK

ABH2 R110A = molecular target: T6, ABH2 R110A (human, UniProt Q6NS38 1-261, R110A)
T6 sequence: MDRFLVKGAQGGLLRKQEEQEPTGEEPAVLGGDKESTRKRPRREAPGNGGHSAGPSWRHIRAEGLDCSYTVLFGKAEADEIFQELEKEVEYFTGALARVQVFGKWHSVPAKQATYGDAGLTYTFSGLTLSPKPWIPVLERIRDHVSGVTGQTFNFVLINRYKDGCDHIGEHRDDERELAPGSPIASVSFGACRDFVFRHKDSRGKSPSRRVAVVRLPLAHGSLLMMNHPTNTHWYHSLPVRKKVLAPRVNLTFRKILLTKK

Row | Binder | Kd (ABH2 V99A) | Kd (ABH2 R172A) | Kd (ABH2 F124A) | Kd (ABH2 S125A) | Kd (ABH2 E175A) | Kd (ABH2 R110A)
1 | m1A dsDNA (dsDNA, N1-methyladenine (m1A) at position 10 of strand 1) DNA 1: AGTTCAATGATCTTCAT DNA 2: ATGAAGATCATTGAACT | 3.2 ± 0.3 µM | 2.1 ± 0.08 µM | 3.1 ± 0.3 µM | 2.7 ± 0.3 µM | 2.44 ± 0.06 µM | 3.4 ± 0.2 µM
2 | m3C dsDNA (dsDNA, N3-methylcytosine (m3C) at position 12 of strand 1) DNA 1: AGTTCAATGATCTTCAT DNA 2: ATGAAGATCATTGAACT | 2.5 ± 0.6 µM | 2.6 ± 0.4 µM | 4.4 ± 0.7 µM | 4 ± 0.3 µM | 2.96 ± 0.04 µM | 4 ± 0.3 µM
